Measured values as given in article doi:10.1101/2021.01.06.425618.

Legend:
[1] = target: venus-PreIQ3-IQ-A1.3 (wild type) (rat) (UniProt P27732); test: FRET or BRET
[2] = target: venus-PreIQ3-IQ-A1.3 F[-2]A (rat); test: FRET or BRET

Sequence of UniProt P27732 (P27732 whole entry): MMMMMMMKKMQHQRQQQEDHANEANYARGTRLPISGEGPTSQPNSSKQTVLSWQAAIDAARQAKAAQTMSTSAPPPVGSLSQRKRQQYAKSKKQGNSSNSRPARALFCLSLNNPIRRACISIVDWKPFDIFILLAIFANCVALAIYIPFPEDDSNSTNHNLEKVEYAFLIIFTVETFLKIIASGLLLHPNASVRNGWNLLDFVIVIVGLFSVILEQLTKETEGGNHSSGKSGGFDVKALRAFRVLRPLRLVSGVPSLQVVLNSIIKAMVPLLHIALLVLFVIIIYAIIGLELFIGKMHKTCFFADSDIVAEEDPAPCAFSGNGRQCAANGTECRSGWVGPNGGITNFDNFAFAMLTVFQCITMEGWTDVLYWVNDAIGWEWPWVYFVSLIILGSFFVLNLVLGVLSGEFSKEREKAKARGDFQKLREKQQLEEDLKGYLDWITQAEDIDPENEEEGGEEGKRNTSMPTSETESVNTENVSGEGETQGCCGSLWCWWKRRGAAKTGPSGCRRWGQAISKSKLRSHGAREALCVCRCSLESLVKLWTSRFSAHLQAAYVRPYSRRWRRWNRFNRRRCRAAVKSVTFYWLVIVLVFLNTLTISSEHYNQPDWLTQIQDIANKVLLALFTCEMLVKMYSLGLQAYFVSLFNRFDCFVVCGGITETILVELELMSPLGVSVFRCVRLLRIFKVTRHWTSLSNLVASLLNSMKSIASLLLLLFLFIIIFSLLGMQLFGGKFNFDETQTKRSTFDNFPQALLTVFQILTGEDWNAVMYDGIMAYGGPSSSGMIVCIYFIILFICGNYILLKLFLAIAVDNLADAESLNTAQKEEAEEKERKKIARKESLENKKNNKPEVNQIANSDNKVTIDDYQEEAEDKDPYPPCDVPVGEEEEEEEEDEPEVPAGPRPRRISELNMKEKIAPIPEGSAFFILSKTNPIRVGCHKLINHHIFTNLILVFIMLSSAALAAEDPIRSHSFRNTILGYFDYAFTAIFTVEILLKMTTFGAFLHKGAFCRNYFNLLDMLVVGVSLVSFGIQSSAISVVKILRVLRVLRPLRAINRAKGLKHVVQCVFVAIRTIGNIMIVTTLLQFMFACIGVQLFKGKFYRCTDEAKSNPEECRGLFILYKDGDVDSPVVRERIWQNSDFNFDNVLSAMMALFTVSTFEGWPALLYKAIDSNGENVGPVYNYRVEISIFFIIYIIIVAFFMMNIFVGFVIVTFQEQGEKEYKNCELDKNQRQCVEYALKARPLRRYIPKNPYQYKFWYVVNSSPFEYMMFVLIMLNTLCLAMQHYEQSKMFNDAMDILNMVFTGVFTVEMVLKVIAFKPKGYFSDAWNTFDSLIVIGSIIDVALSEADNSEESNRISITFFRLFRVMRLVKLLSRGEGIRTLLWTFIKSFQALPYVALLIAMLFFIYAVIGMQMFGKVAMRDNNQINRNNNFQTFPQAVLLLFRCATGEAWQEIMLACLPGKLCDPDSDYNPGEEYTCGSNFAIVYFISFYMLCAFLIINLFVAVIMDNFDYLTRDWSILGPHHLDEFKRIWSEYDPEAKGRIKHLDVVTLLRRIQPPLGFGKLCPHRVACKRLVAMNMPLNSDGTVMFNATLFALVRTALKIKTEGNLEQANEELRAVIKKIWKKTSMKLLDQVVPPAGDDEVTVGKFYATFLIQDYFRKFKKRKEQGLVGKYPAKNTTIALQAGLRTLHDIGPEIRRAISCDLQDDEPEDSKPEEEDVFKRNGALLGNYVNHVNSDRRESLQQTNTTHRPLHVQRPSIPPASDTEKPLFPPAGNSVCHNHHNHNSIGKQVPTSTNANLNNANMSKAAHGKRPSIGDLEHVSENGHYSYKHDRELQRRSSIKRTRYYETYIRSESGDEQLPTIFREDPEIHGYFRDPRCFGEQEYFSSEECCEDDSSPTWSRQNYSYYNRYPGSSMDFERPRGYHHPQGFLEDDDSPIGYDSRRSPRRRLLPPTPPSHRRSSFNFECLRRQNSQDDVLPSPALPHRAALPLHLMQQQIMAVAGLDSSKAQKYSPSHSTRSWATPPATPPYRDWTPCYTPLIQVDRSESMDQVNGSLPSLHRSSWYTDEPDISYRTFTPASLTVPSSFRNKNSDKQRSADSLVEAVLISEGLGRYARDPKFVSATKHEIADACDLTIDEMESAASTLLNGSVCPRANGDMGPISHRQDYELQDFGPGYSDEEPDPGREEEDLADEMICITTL

Ka [1]: 2.14e+07 M⁻¹
Ka [2]: 5.8e+06 M⁻¹
Substance: Cerulean-ICDI1.4 (wild type) (from UniProt O60840 1-1977) (domain or fragment)
